Results reported in US12679878B2, “CRF2 receptor agonists and their use in therapy” (SANOFI, priority 2020, dated 2026).
Starred links: 1 amine or outer side, 2 acyl side, 3 side chain; linkers in the order of their positions; H or OH if unused. Non-standard residues stand in square brackets, D forms with d. Groups on a side chain read outwards from the residue. No end group written: not given here. *: point of attachment. C18 diacid = O=C(O)CCCCCCCCCCCCCCCCC(=O)*; γGlu = O=C(O)[C@H](CCC(=O)[*:2])N[*:1]; Palmitoyl = CCCCCCCCCCCCCCCC(=O)*; AEEA = NCCOCCOCC(=O)O; Aib = CC(C)(N)C(=O)O

Each binder was assayed against human corticotropin-releasing factor 2α (CRF2 α receptor) (human), Q13324 (assay: cell-based or functional assay).
human corticotropin-releasing factor 2α (CRF2 α receptor) (human), Q13324, sequence (Q13324 20-411): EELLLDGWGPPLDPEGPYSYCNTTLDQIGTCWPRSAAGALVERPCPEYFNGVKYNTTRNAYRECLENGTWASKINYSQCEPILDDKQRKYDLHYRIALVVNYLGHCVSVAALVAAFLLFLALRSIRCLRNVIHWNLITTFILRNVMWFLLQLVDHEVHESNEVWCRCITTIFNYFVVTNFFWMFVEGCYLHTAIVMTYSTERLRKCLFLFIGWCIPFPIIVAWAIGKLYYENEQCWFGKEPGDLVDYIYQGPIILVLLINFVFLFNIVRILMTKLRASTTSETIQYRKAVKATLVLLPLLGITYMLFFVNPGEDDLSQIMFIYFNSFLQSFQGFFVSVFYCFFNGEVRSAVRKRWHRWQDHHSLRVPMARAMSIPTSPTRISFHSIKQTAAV

EC50 [nM], 0% HSA | EC50 [nM], 0.1% HSA | Binder
0.69 nM | 10.1 nM | Ac-IVLSLD[dV]PIGLK([AEEA-AEEA-γGlu-C18 diacid])QILLEQERQK[Aib]QREQAEKNKQILEQV-NH2 (SMILES CC[C@H](C)[C@H](NC(C)=O)C(=O)N[C@H](C(=O)N[C@@H](CC(C)C)C(=O)N[C@@H](CO)C(=O)N[C@@H](CC(C)C)C(=O)N[C@@H](CC(=O)O)C(=O)N[C@@H](C(=O)N1CCC[C@H]1C(=O)N[C@H](C(=O)NCC(=O)N[C@@H](CC(C)C)C(=O)N[C@@H](CCCCNC(=O)COCCOCCNC(=O)COCCOCCNC(=O)CC[C@H](NC(=O)CCCCCCCCCCCCCCCCC(=O)O)C(=O)O)C(=O)N[C@@H](CCC(N)=O)C(=O)N[C@H](C(=O)N[C@@H](CC(C)C)C(=O)N[C@@H](CC(C)C)C(=O)N[C@@H](CCC(=O)O)C(=O)N[C@@H](CCC(N)=O)C(=O)N[C@@H](CCC(=O)O)C(=O)N[C@@H](CCCNC(=N)N)C(=O)N[C@@H](CCC(N)=O)C(=O)N[C@@H](CCCCN)C(=O)NC(C)(C)C(=O)N[C@@H](CCC(N)=O)C(=O)N[C@@H](CCCNC(=N)N)C(=O)N[C@@H](CCC(=O)O)C(=O)N[C@@H](CCC(N)=O)C(=O)N[C@@H](C)C(=O)N[C@@H](CCC(=O)O)C(=O)N[C@@H](CCCCN)C(=O)N[C@@H](CC(N)=O)C(=O)N[C@@H](CCCCN)C(=O)N[C@@H](CCC(N)=O)C(=O)N[C@H](C(=O)N[C@@H](CC(C)C)C(=O)N[C@@H](CCC(=O)O)C(=O)N[C@@H](CCC(N)=O)C(=O)N[C@H](C(N)=O)C(C)C)[C@@H](C)CC)[C@@H](C)CC)[C@@H](C)CC)C(C)C)C(C)C) [SEQ ID NO: 164]
0.01 nM |  | IVLSLD[dV]PTKLK([γGlu-Palmitoyl])QKLLKQERQR[Aib]EREQAEKNKRILERV-NH2 (N-terminus assumed; SMILES CCCCCCCCCCCCCCCC(=O)N[C@@H](CCC(=O)NCCCC[C@H](NC(=O)[C@H](CC(C)C)NC(=O)[C@H](CCCCN)NC(=O)[C@@H](NC(=O)[C@@H]1CCCN1C(=O)[C@H](NC(=O)[C@H](CC(=O)O)NC(=O)[C@H](CC(C)C)NC(=O)[C@H](CO)NC(=O)[C@H](CC(C)C)NC(=O)[C@@H](NC(=O)[C@@H](N)[C@@H](C)CC)C(C)C)C(C)C)[C@@H](C)O)C(=O)N[C@@H](CCC(N)=O)C(=O)N[C@@H](CCCCN)C(=O)N[C@@H](CC(C)C)C(=O)N[C@@H](CC(C)C)C(=O)N[C@@H](CCCCN)C(=O)N[C@@H](CCC(N)=O)C(=O)N[C@@H](CCC(=O)O)C(=O)N[C@@H](CCCNC(=N)N)C(=O)N[C@@H](CCC(N)=O)C(=O)N[C@@H](CCCNC(=N)N)C(=O)NC(C)(C)C(=O)N[C@@H](CCC(=O)O)C(=O)N[C@@H](CCCNC(=N)N)C(=O)N[C@@H](CCC(=O)O)C(=O)N[C@@H](CCC(N)=O)C(=O)N[C@@H](C)C(=O)N[C@@H](CCC(=O)O)C(=O)N[C@@H](CCCCN)C(=O)N[C@@H](CC(N)=O)C(=O)N[C@@H](CCCCN)C(=O)N[C@@H](CCCNC(=N)N)C(=O)N[C@H](C(=O)N[C@@H](CC(C)C)C(=O)N[C@@H](CCC(=O)O)C(=O)N[C@@H](CCCNC(=N)N)C(=O)N[C@H](C(N)=O)C(C)C)[C@@H](C)CC)C(=O)O) [SEQ ID NO: 19]
2 nM | 30.5 nM | Ac-IVLSLD[dV]PIELK([AEEA-AEEA-γGlu-C18 diacid])QILLEQERQK[Aib]QREQAEKNKQILEQV-NH2 (SMILES CC[C@H](C)[C@H](NC(C)=O)C(=O)N[C@H](C(=O)N[C@@H](CC(C)C)C(=O)N[C@@H](CO)C(=O)N[C@@H](CC(C)C)C(=O)N[C@@H](CC(=O)O)C(=O)N[C@@H](C(=O)N1CCC[C@H]1C(=O)N[C@H](C(=O)N[C@@H](CCC(=O)O)C(=O)N[C@@H](CC(C)C)C(=O)N[C@@H](CCCCNC(=O)COCCOCCNC(=O)COCCOCCNC(=O)CC[C@H](NC(=O)CCCCCCCCCCCCCCCCC(=O)O)C(=O)O)C(=O)N[C@@H](CCC(N)=O)C(=O)N[C@H](C(=O)N[C@@H](CC(C)C)C(=O)N[C@@H](CC(C)C)C(=O)N[C@@H](CCC(=O)O)C(=O)N[C@@H](CCC(N)=O)C(=O)N[C@@H](CCC(=O)O)C(=O)N[C@@H](CCCNC(=N)N)C(=O)N[C@@H](CCC(N)=O)C(=O)N[C@@H](CCCCN)C(=O)NC(C)(C)C(=O)N[C@@H](CCC(N)=O)C(=O)N[C@@H](CCCNC(=N)N)C(=O)N[C@@H](CCC(=O)O)C(=O)N[C@@H](CCC(N)=O)C(=O)N[C@@H](C)C(=O)N[C@@H](CCC(=O)O)C(=O)N[C@@H](CCCCN)C(=O)N[C@@H](CC(N)=O)C(=O)N[C@@H](CCCCN)C(=O)N[C@@H](CCC(N)=O)C(=O)N[C@H](C(=O)N[C@@H](CC(C)C)C(=O)N[C@@H](CCC(=O)O)C(=O)N[C@@H](CCC(N)=O)C(=O)N[C@H](C(N)=O)C(C)C)[C@@H](C)CC)[C@@H](C)CC)[C@@H](C)CC)C(C)C)C(C)C) [SEQ ID NO: 162]
0.24 nM | 3.91 nM | Ac-IVLSLD[dV]PIHLK([AEEA-AEEA-γGlu-C18 diacid])QILLEQERQK[Aib]QREQAEKNKQILEQV-NH2 [SEQ ID NO: 163]
0.28 nM | 5.06 nM | Ac-IVLSLD[dV]PIKLK([AEEA-AEEA-γGlu-C18 diacid])QILLEQARQK[Aib]QREQAEKNEQILEQV-NH2 (SMILES CC[C@H](C)[C@H](NC(C)=O)C(=O)N[C@H](C(=O)N[C@@H](CC(C)C)C(=O)N[C@@H](CO)C(=O)N[C@@H](CC(C)C)C(=O)N[C@@H](CC(=O)O)C(=O)N[C@@H](C(=O)N1CCC[C@H]1C(=O)N[C@H](C(=O)N[C@@H](CCCCN)C(=O)N[C@@H](CC(C)C)C(=O)N[C@@H](CCCCNC(=O)COCCOCCNC(=O)COCCOCCNC(=O)CC[C@H](NC(=O)CCCCCCCCCCCCCCCCC(=O)O)C(=O)O)C(=O)N[C@@H](CCC(N)=O)C(=O)N[C@H](C(=O)N[C@@H](CC(C)C)C(=O)N[C@@H](CC(C)C)C(=O)N[C@@H](CCC(=O)O)C(=O)N[C@@H](CCC(N)=O)C(=O)N[C@@H](C)C(=O)N[C@@H](CCCNC(=N)N)C(=O)N[C@@H](CCC(N)=O)C(=O)N[C@@H](CCCCN)C(=O)NC(C)(C)C(=O)N[C@@H](CCC(N)=O)C(=O)N[C@@H](CCCNC(=N)N)C(=O)N[C@@H](CCC(=O)O)C(=O)N[C@@H](CCC(N)=O)C(=O)N[C@@H](C)C(=O)N[C@@H](CCC(=O)O)C(=O)N[C@@H](CCCCN)C(=O)N[C@@H](CC(N)=O)C(=O)N[C@@H](CCC(=O)O)C(=O)N[C@@H](CCC(N)=O)C(=O)N[C@H](C(=O)N[C@@H](CC(C)C)C(=O)N[C@@H](CCC(=O)O)C(=O)N[C@@H](CCC(N)=O)C(=O)N[C@H](C(N)=O)C(C)C)[C@@H](C)CC)[C@@H](C)CC)[C@@H](C)CC)C(C)C)C(C)C) [SEQ ID NO: 165]
